Experimental data reported in the supplement of paper PMC9170038.

Test system: MS2 coat protein
Assay: apparent KD of MS2 coat protein; designed switch direction (-1 OFF switch, 1 ON switch): -1; higher = weaker reporter binding
In short: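 The apparent KD reported per design is the median over clusters of curve fits to normalised cluster fluorescence. The RNA switches were transcribed on Illumina chips by stalled E. coli RNA polymerase. SNAP-549-labelled MS2 coat protein was titrated from 0.7 or 1.5 nM, doubling up to 3 µM, in Tris-HCl pH 7.5 buffer containing KCl, MgCl2, BSA, DTT, tRNA and Tween-20, with no input, 200 uM small-molecule ligand, or an oligonucleotide input.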

[1] = input ligand: microRNA oligo, concentration not stated
[2] = Eterna round: R95, input ligand: FMN 200 uM
[3] = Eterna round: R95, input ligand: microRNA oligo, concentration not stated
[4] = Eterna round: R95, input ligand: none

Sequence	apparent KD of MS2 coat protein (input ligand: FMN 200 uM) [nM]	apparent KD of MS2 coat protein (input ligand: none) [nM]	apparent KD of MS2 coat protein [3] [nM]	also measured
GGUCAGAUGGUAGGAUAUCCAUAUCGAGUGACCCUUUCAUAACAUGAGGAUCACCCAUGUCGGUGGGAGAAGGGUCGUACGGCG [salish99_ExNG02_R04_020] (Eterna round: R96, puzzle: Exclusion NG 2)	21.3	23.6		apparent KD of MS2 coat protein [1]: 16.4 nM
GGUCAGAUGGUAGGAUAUCUAUAUCGAGUGACCCUUUCAUAACAUGAGGAUCACCCAUGUCGGUGGGAGAAGGGCCGUACGGCG [salish99_ExNG02_R04_012] (Eterna round: R96, puzzle: Exclusion NG 2)	41.1	40.2		apparent KD of MS2 coat protein [1]: 30.6 nM
GGUCAGCUAGGAUAUACAUGAGGAUCACCCAUGUACUGACCCAUGCGGUAGUCCGCAUGUAGAAGGAGCAAAAU [Cebiin] (Eterna round: R97, puzzle: Exclusion 3)	11.3	18.2		
GGUCAUCAAGUCAGGAUAUCGUCUGGUCGGUCUGGCGAGAAGGGACAUGAGGAUCACCCAUGUCGACUCAUCAG [Ex4 #11] (Eterna round: R97, puzzle: Brourd's mod of Exclusion 4)	29.2	17.6		
GGUCCACAUGAGGAUCACCCAUGUUAGGAUAUCUCCUGCCUCCUCACUGGAGGCAGACAGAGAAGGAACAUCAA [Eratxe] (puzzle: Exclusion 1)			22	apparent KD of MS2 coat protein [2]: 78.3 nM; apparent KD of MS2 coat protein [4]: 23.9 nM
GGUCCACGAGGAUAUCGAUUAUAGUACAUGAGGAUCACCCAUGUUGUCCAGGUUUCGAUUCGAGAAGGCGUGGGUU [LRO-Ex5-02] (puzzle: Exclusion 5)			51.8	
GGUCCGAGUGUGAGGAUAUGCUGGUCCUUGGAUCAGCAGAAGGCACAUGAGGAUCACCCAUGUGGUGUCGGACC [Mat - Exclusion 4 - Eli Mod - D32] (Eterna round: R97, puzzle: Brourd's mod of Exclusion 4)	140	932		
GGUCCGUGUGUGAGGAUAUGCUGGUCCUUGGAUCAGCAGAAGGCACAUGAGGAUCACCCAUGUGGUGUCGGACC [Mat - Exclusion 4 - Eli Mod - D33] (Eterna round: R97, puzzle: Brourd's mod of Exclusion 4)	24.6	361		
GGUCGACAUGAGGAUCACCCAUGUCAGGAUAUCGUCACUGGAGCUUCGGCUCCAGUGACGAGAAGGGAUAUGAU [E1/17-A1] (Eterna round: R97, puzzle: Exclusion 1)	39.1	34.2		
GGUCGGCGAGGAUAUACAUGAGGAUCACCCAUGUGAUAGAGUGCACGCGUACGUGUACGUAGAAGGCGCUGACG [JL-ex3-3.28 salish99 mod] (puzzle: Exclusion 3)			13.2	apparent KD of MS2 coat protein [2]: 26.4 nM; apparent KD of MS2 coat protein [4]: 12.5 nM
GGUCGUAGACAGGAUAUGCGGCAAAGAAACAAAGCAGAAGGGUCUACUUGAGGAUCACCCAAGUGGGCGGUUAA [Atrele] (Eterna round: R97, puzzle: Exclusion 6)	153	20.4		
GGUCGUCAAGUCAGGAUAUCGUUUGGUCGGUGUAACGAGAAGGGACAUGAGGAUCACCCAUGUCGUCUCAUCAG [Ex4 #28] (Eterna round: R97, puzzle: Brourd's mod of Exclusion 4)	29.3	20.4		
GGUCUACAUGAGGAUCACCCAUGUAAGGAUAUCGUCACUGGAGCUUCGGCUCCAGUGACGAGAAGGUGCAUAAU [E1/11-A1] (Eterna round: R97, puzzle: Exclusion 1)	35.4	27.2		
GGUCUUCAAGUCAGGAUAUCGUCUAGUCGGUCUGGCGAGAAGGGACAUGAGGAUCACCCAUGUCGUCUCAUCAG [Ex4 #14] (Eterna round: R97, puzzle: Brourd's mod of Exclusion 4)	30.6	19.9		
GGUGAAGCAGGAUAUGUAUCGGCAUACAUGAGGAUCACCCAUGUCAUGUAGAUACCGCAUAUAGAAGGGCUUCACC [Exclusion 5 (FMN-MS2 slide v.5)] (Eterna round: R97, puzzle: Exclusion 5)	41.1	16.9		
GGUGCGUAUGUGAGGAUAUGCUGGUCCUUGGAUCAGCAGAAGGCACAUGAGGAUCACCCAUGUGGUGUCGUACG [salish99_Bmod_Ex4_012] (puzzle: Brourd's mod of Exclusion 4)			54.6	
GGUGCGUAUGUGAGGAUAUGCUGGUCCUUGGAUCAGCAGAAGGCACAUGAGGAUCACCCAUGUGGUGUCGUGCC [salish99_Bmod_Ex4_019] (Eterna round: R96, puzzle: Brourd's mod of Exclusion 4)	132	1050		apparent KD of MS2 coat protein [1]: 741 nM
GGUGCGUAUGUGAGGAUAUGCUGGUCCUUGGAUCAGCAGAAGGCACAUGAGGAUCACCCAUGUGGUGUCGUGCC [salish99_Bmod_Ex4_019] (puzzle: Brourd's mod of Exclusion 4)			168	
GGUGCGUCUGUGAGGAUAUGCUGGUCCUUGGCUCGGCAGAAGGCACAUGAGGAUCACCCAUGUGGUGUCGUGCC [salish99_Bmod_ex4_058] (puzzle: Brourd's mod of Exclusion 4)			16.7	
GGUGCGUGUGUGAGGAUAUGCUGGUCCUUGGCUCGGCAGAAGGCACAUGAGGAUCACCCAUGUGGUGUCGUGCC [salish99_Bmod_ex4_057] (puzzle: Brourd's mod of Exclusion 4)			19.9	
GGUGCUGGCGCGUCGGUGUUGGUGCAAUAAGCUUGUGAAACAUGAGGAUCACCCAUGUCCUCAUGGGCUCGUCUUGU [salish99_TOv2_r2_089] (puzzle: Sensor v3, turn-off variant 2)			13	apparent KD of MS2 coat protein [2]: 123 nM; apparent KD of MS2 coat protein [4]: 138 nM
GGUGGACAUGAGGAUCACCCAUGUGAGGAUAUCGGCUGGUACGUGUUGGCUGGCAUCUCGAGAAGGCACAUAGU [Exclusion 1 V61] (puzzle: Exclusion 1)			58.8	
GGUUAUUCUGUAUGGGUACACAUGAGGAUCACCCAUGUACAGAGGUCUACCCUAAUAUAGCAAGCUGGCCCGUCCUA [Eternabot (L1) Solution 24] (Eterna round: R97, puzzle: Sensor, turn-off variant 1)	148	132		
GGUUCGAAAGUGAGGAUAUGCUGGUCCUUGGAUCAGCAGAAGGCACAUGAGGAUCACCCAUGUGGUAACGGACC [Mat - Exclusion 4 - Eli Mod - D37] (Eterna round: R97, puzzle: Brourd's mod of Exclusion 4)	122	25.2		
GGUUGACAUGAGGAUCACCCAUGUGAGGAUAUCGGCUGGUACGUGUUGGCUGGCAUCUCGAGAAGGCACAUAGG [Exclusion 1 V59] (puzzle: Exclusion 1)			155	
GGUUGACAUGAGGAUCACCCAUGUGAGGAUAUGCGAGAGAAAAAAGUGAGGAAGAAUAGCAGAAGGCGCUGUCG [salish99-ex1_r3_011] (puzzle: Exclusion 1)			41.7	apparent KD of MS2 coat protein [2]: 44.6 nM; apparent KD of MS2 coat protein [4]: 21.1 nM
